Laboratory results: PMC2932714 (PLoS ONE, 2010)

Biological target: the molecule itself
Assay: thioflavin T fluorescence + atomi

B1: Ure2 (yeast prion protein Ure2, Saccharomyces cerevisiae) (natural protein, UniProt P23202 1-354, looked up)
chain: MMNNNGNQVSNLSNALRQVNIGNRNSNTTTDQSNINFEFSTGVNNNNNNNSSSNNNNVQNNNSGRNGSQNNDNENNIKNTLEQHRQQQQAFSDMSHVEYSRITKFFQEQPLEGYTLFSHRSAPNGFKVAIVLSELGFHYNTIFLDFNLGEHRAPEFVSVNPNARVPALIDHGMDNLSIWESGAILLHLVNKYYKETGNPLLWSDDLADQSQINAWLFFQTSGHAPMIGQALHFRYFHSQKIASAVERYTDEVRRVYGVVEMALAERREALVMELDTENAAAYSAGTTPMSQSRFFDYPVWLVGDKLTIADLAFVPWNNVVDRIGINIKIEFPEVYKWTKHMMRRPAVIKALRGE
notes: Ure2, Saccharomyces cerevisiae; the introduction describes it as a 354-amino acid homodimeric protein; It starts as the native dimer and assembles into protofibrils and mature fibrils on incubation at 4°C; also called WT Ure2; native Ure2; source: Escherichia coli, purified under native conditions
B1: binds.
